B1: anti-human IL-21 antibody AbM2 (antibody, V domains shown)
VH: QVQLVQSGAEVKKPGASVKVSCKASGYTFTDYWMHWVRQAPGQGLEWMGLIDTSDSYTIYNQKFKGRVTMTRDTSTSTVYMELSSLRSEDTAVYYCARYGPLAMDYWGQGTLVTVSS
VL: DIQMTQSPSSLSASVGDRVTITCRASQDISNYLNWYQQKPGKAPKLLIYYTSRLHSGVPSRFSGSGSGTDFTLTISSLQPEDFATYYCQQFHTLRTFGGGTKVEIKR
notes: In the Simoa assays it is biotinylated (40:1 biotin to antibody)
B2: anti-human IL-21 antibody Ab3-1 (antibody, mouse IgG1, kappa, V domains shown)
VH: QVQLKQSAAELARPGASVKMSCKASGYFFTLYMMHWAKQRPGQNLEWIGYINPSSGYTEYNQKFKDKTTLTADKSSSTAYMQLSSLTSEDSAIYYCLTDFDYWGQGTSLTVSS
VL: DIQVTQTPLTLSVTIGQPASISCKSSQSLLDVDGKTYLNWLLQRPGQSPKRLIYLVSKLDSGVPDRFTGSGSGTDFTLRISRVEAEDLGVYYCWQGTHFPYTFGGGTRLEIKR
notes: also called Ab34; Ab3-21

Biological target: T1, Recombinant human IL-21 protein (25-155) (human, UniProt Q9HBE4 32-162)
T1 construct: also called recombinant IL-21; IL-21 recombinant protein
T1 sequence (Q9HBE4 other isoform, or with tags, fused parts or gaps limits assumed): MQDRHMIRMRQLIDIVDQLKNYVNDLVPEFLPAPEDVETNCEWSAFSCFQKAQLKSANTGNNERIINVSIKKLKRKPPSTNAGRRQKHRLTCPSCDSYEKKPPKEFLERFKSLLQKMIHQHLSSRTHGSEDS
Assay: Quanterix Simoa sandwich pairing against recombinant IL-21 reference curve (100 ng/mL-1.0 fg/mL)
Procedure: The antibodies of the present invention, AbM2, Ab2-1, and Ab3-1, are conjugated to beads (Quanterix Cat #101360) at 0.5 mg/mL and are biotinylated according to the manufacturer's protocol at a ratio of 40 to 1 biotin to antibody. Nine combinations of the three antibody pairs are generated and analyzed against a recombinant IL-21 reference curve (100 ng/mL-1.0 fg/mL). The beads are diluted in bead diluent (Quanterix, Cat #100458) and the detection antibodies are diluted in sample/detection buffer (Quanterix, Cat #101359). Two pairs of antibodies are moved into further optimization due to the ability to discriminate IL-21 concentrations in the fg/mL range. The first pair is Ab2-1 and AbM2 which perform well in either orientation. The second pair is Ab3-21 as capture and Ab2-1 as detection.

| binding result | Binder |
| --- | --- |
| binds | B1 |
| binds | B2 |
